According to the supplement of paper PMC10567573:

B1: VAMP4 (parent)
chain: IMALVAAILLLVIIILIVMKYRT
B2: SFRS1 (parent)
chain: YSPRRSRGSPRYSPRHSRSRSRT

Variants of: B1
Test: protein stability index of a GFP-peptide fusion (GPS, HEK-293T) (PSI 1-6); higher = more stable
Details: c terminus: native
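Note: lentivirally expressed fusions sorted by FACS into six bins by GFP to DsRed ratio, PSI derived from sequencing read proportions per bin multiplied by bin number.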

Protein stability index: each site, then its substitutions
T23: Q 3.1 | K 2.31 | E 2.74 | G 3.81 | V 3.3 | R 2.99 | S 3.11 | A 3.69 | H 3.48 | L 3.06 | P 3.28 | M 3.39 | W 3.69 | N 3.18 | D 3.27 | I 2.95 | Y 3.37 | F 3.3 | C 3.53

Variants of: B2
Test: as above
Details: c terminus: native

Protein stability index, by site and new letter:
R4: T 2.83 | A 2.82 | W 2.38 | N 3.13 | H 3.29 | G 3.82 | D 2.74 | L 2.76 | I 2.65 | M 2.76 | Y 2.56 | C 2.28 | F 2.57 | S 3.56 | P 3.36 | E 3.12 | K 3.71 | V 3.24 | Q 3.53
R7: I 1.66 | P 2.91 | Q 3.54 | K 3.77 | N 2.92 | T 3.13 | V 2.24 | M 2.47 | F 2.43 | H 2.61 | S 3.4 | L 2.03 | A 2.97 | Y 3.38 | E 2.15 | C 1.95 | G 2.47 | W 1.95 | D 3.22
P3: Y 4.24 | R 4.27 | I 2.8 | L 3.8 | F 3.91 | H 4.16 | A 3.81 | V 4.06 | M 3.58 | N 4.15 | S 4.21 | G 4.3 | K 3.56 | T 4.22 | D 4.51 | E 4.18 | Q 3.72 | W 3.11 | C 3.4
Y1: D 3.9 | R 5.25 | S 4.36 | K 4.1 | C 3.99 | T 4.43 | E 3.92 | H 4.86 | L 3.74 | M 3.9 | N 5.03 | I 4.17 | G 4.65 | A 4.29 | W 4.08 | Q 4.55 | P 4.55 | F 2.96 | V 4.65
S2: M 3.77 | I 3.27 | H 2.75 | L 4.2 | Q 3.98 | R 4.84 | N 3.54 | G 4.27 | T 3.19 | E 4.12 | D 4.09 | P 3.71 | W 4.07 | Y 3.62 | V 1.85 | A 2 | K 3.9 | F 3.52 | C 1.94
G8: I 3.46 | D 3.45 | F 2.13 | S 4.32 | Q 3.53 | E 3.44 | N 3.7 | M 3.19 | C 2.98 | K 3.98 | R 4.58 | A 4.22 | P 3.5 | L 3 | H 3.55
R5: A 3.98 | L 2.58 | V 2.87 | Q 3.5 | D 3.53 | I 2.33 | H 4.37 | K 3.14 | G 3 | W 1.84 | N 3.24 | T 2.8 | S 3.76 | F 2.52 | C 2.92 | M 3.58 | E 3.54 | Y 3.01 | P 2.75
S6: K 3.01 | F 3.27 | D 3.83 | H 3.66 | M 3.56 | P 4.39 | W 3.43 | Y 3.29 | I 3.22 | E 3.26 | N 3.97 | G 3.55 | V 3.09 | T 4.02 | L 2.65 | A 4.13 | Q 4.33 | C 2.81 | R 4.01
